Measurements published in patent US20250041410A1 (Y MABS THERAPEUTICS, published 2025).

Biological target: the molecule itself
Test: mass photometry (Refeyn) after dilution in PBS and 60 min at 37 C; self-association of the chain into dimer and tetramer
Procedure: For this example, a Refeyn Mass photometer (Refeyn Ltd, Oxford UK) was used according to the manufacturer's instructions, with the following settings:
The GD2-SADA construct was diluted in PBS, and incubated for 60 minutes at 37° C. before measuring the size distribution. Following dilutions were made: 150 nM, 100 nM, 50 nM, 10 nM, 5 nM, 1 nM and 100 PM and subjected to Mass photometry using the Refeyn Mass photometer.

B1: GD2-SADA complex (other)
chain: EIVMTQTPATLSVSAGERVTITCKASQSVSNDVTWYQQKPGQAPRLLIYSASNRYSGVPARFSGSGYGTEFTFTISSVQSEDFAVYFCQQDYSSFGCGTKLEIKRGGGGSGGGGSGGGGSGGGGSGGGGSGGGGSQVQLVESGPGVVQPGRSLRISCAVSGFSVTNYGVHWVRQPPGKCLEWLGVIWAGGITNYNSAFMSRLTISKDNSKNTVYLQMNSLRAEDTAMYYCASRGGHYGYALDYWGQGTLVTVSSGGGGSGGGGSGGGGSGGGGSHVQLVESGGGLVQPGGSLRLSCAASGFSLTDYGVHWVRQAPGKGLEWLGVIWSGGGTAYNTALISRFTISRDNSKNTLYLQMNSLRAEDTAVYYCARRGSYPYNYFDAWGCGTLVTVSSGGGGSGGGGSGGGGSGGGGSGGGGSGGGGSQAVVTQEPSLTVSPGGTVTLTCGSSTGAVTASNYANWVQQKPGQCPRGLIGGHNNRPPGVPARFSGSLLGGKAALTLLGAQPEDEAEYYCALWYSDHWVIGGGTKLTVLGTPLGDTTHTSGKPLDGEYFTLQIRGRERFEMFRELNEALELKDAQAGKEPGGSGGA
notes: A single polypeptide: anti-GD2 scFv, humanized C825 (anti-DOTA) scFv and the p53 tetramerization (SADA) domain; It is written here as one chain that associates with itself; In the mass photometry assay it was a concentration-dependent mixture of monomer, dimer, tetramer and higher multimers; also called GD2-SADA construct; GD2-SADA conjugate
B1: binds.
